The target of experiment [1] is T1, human FcRn extracellular domain / beta2 microglobulin complex (human, UniProt P55899 24-290; P61769 21-119).
T1 construct: range 24-290;range 21-119; Both chains were co-expressed in HEK293 6E cells and purified on IgG-Sepharose; In the ELISA the complex was captured by a coated anti-β2 microglobulin antibody at pH 6.0; also called FcRn/β2 microglobulin complex
Briefly: ELISA, pH 6.0; FcRn/β2m complex captured by anti-β2m antibody, antibody titrated, anti-human kappa HRP detection.
Description: (§1) Maxisorp 96-well plates (Thermo Fisher Scientific, Rochester, N.Y.) were coated with 5 ug/ml anti-β₂ microglobulin monoclonal antibody. Wells were then washed with PBS and treated with Superblock blocking solution (Thermo Fisher Scientific, Rockford, Ill.). Then, the FcRn/β₂ microglobulin complex was diluted to 5 ug/ml in SPBS6T (50 mM sodium phosphate buffer pH 6.0, 150 mM NaCl, 0.05% Tween-20) and added to allow for capture by the coated anti-β₂ microglobulin antibody for 60 min at room temperature. Wells were then washed by SPBS6T and then exposed to hu39D10 or its the variants in SPBS6T and incubated for 60 min at room temperature. The hu39D10/FcRn complex formed by the incubation was probed with an F(ab′)2 fragment of an anti-human kappa HRP conjugate (SourthernBiotechnology, Birmingham, Ala.; 1/5000 dilution in SPBS6T) for 30 min at room temperature. After washing with SPBS6T, 100 ul of TMB (Sigma) was loaded into each well for signal detection. […] The affinity of the IgG variants to FcRn was calculated and plotted using Prism software by GraphPad Software (La Jolla, Calif.).

The target in experiment [2] is T1, human FcRn extracellular domain / beta2 …. The experiment is described as follows: ELISA, pH 6.0; ratio of EC50 values against hu39D10 with native IgG4 Fc. In general terms: ELISA stands for enzyme-linked immunosorbent assay.
Description: as §1

One may read the EC50 as the midpoint of the concentration-response curve. A higher EC50 goes with weaker potency.

T1 sequence (P55899 24-290 limits assumed, form in doubt, chain 1 of 2): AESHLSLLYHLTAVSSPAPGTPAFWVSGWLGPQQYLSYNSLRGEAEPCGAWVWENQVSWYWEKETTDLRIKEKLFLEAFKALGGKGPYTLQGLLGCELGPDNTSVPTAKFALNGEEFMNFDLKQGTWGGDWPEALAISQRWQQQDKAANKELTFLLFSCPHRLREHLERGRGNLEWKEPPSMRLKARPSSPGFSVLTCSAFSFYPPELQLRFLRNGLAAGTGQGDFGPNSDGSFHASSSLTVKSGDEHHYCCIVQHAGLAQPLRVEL
T1 sequence (P61769 21-119 limits assumed, form in doubt, chain 2 of 2): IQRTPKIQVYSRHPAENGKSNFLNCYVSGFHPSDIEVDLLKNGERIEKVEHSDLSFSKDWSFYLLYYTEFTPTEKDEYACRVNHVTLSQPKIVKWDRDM

B1: hu39D10 (humanized 39D10, anti-IL-5 antibody) with native human IgG4 Fc / kappa (antibody)
heavy: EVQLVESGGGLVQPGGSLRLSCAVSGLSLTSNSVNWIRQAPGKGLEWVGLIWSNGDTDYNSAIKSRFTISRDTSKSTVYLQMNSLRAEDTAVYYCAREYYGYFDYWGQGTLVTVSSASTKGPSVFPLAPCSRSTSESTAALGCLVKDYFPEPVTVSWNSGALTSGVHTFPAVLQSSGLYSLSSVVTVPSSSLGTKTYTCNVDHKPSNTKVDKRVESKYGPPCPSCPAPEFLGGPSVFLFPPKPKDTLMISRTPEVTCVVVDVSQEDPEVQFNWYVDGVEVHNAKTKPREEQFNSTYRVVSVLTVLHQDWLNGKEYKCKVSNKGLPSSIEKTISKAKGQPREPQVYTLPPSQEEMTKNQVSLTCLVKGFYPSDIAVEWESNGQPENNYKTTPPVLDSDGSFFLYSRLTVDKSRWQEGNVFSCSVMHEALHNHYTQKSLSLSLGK
light: DIQMTQSPSSLSASVGDRVTITCLASEGISSYLAWYQQKPGKAPKLLIYGANSLQTGVPSRFSGSGSATDYTLTISSLQPEDFATYYCQQSYKFPNTFGQGTKVEVKRTVAAPSVFIFPPSDEQLKSGTASVVCLLNNFYPREAKVQWKVDNALQSGNSQESVTEQDSKDSTYSLSSTLTLSKADYEKHKVYACEVTHQGLSSPVTKSFNRGEC
notes: Full IgG4/kappa expressed in HEK293 6E cells; also called CTIL-5-10gH/-gL6; hu39D10 with unmodified Fc; not shown: human IgG4 heavy chain constant region, native (cloned from Quickclone cDNA library)
On to B1, for which a half-maximal effect in experiment [1] (EC50) was put at 3.8 nM.

B2: hu39D10 with the YTE mutations (M252Y, S254T, T256E) in the IgG4 Fc (antibody, name in EU numbering)
heavy: EVQLVESGGGLVQPGGSLRLSCAVSGLSLTSNSVNWIRQAPGKGLEWVGLIWSNGDTDYNSAIKSRFTISRDTSKSTVYLQMNSLRAEDTAVYYCAREYYGYFDYWGQGTLVTVSSASTKGPSVFPLAPCSRSTSESTAALGCLVKDYFPEPVTVSWNSGALTSGVHTFPAVLQSSGLYSLSSVVTVPSSSLGTKTYTCNVDHKPSNTKVDKRVESKYGPPCPSCPAPEFLGGPSVFLFPPKPKDTLYITREPEVTCVVVDVSQEDPEVQFNWYVDGVEVHNAKTKPREEQFNSTYRVVSVLTVLHQDWLNGKEYKCKVSNKGLPSSIEKTISKAKGQPREPQVYTLPPSQEEMTKNQVSLTCLVKGFYPSDIAVEWESNGQPENNYKTTPPVLDSDGSFFLYSRLTVDKSRWQEGNVFSCSVMHEALHNHYTQKSLSLSLGK
light: DIQMTQSPSSLSASVGDRVTITCLASEGISSYLAWYQQKPGKAPKLLIYGANSLQTGVPSRFSGSGSATDYTLTISSLQPEDFATYYCQQSYKFPNTFGQGTKVEVKRTVAAPSVFIFPPSDEQLKSGTASVVCLLNNFYPREAKVQWKVDNALQSGNSQESVTEQDSKDSTYSLSSTLTLSKADYEKHKVYACEVTHQGLSSPVTKSFNRGEC
notes: domain: IgG4 heavy chain constant region; Substitution positions are EU numbers, not positions on the UniProt entry; also called hu39D10 YTE variant
Turning to B2, the “fold increase in affinity for human FcRn against hu39D10” value in experiment [2] came to 4.7 fold. Also, a half-maximal response in experiment [1] (EC50) required 0.81 nM.

B3: hu39D10 with the YTE mutations and the S228P hinge mutation (YTE+S228P) in IgG4 (antibody)
heavy: EVQLVESGGGLVQPGGSLRLSCAVSGLSLTSNSVNWIRQAPGKGLEWVGLIWSNGDTDYNSAIKSRFTISRDTSKSTVYLQMNSLRAEDTAVYYCAREYYGYFDYWGQGTLVTVSSASTKGPSVFPLAPCSRSTSESTAALGCLVKDYFPEPVTVSWNSGALTSGVHTFPAVLQSSGLYSLSSVVTVPSSSLGTKTYTCNVDHKPSNTKVDKRVESKYGPPCPPCPAPEFLGGPSVFLFPPKPKDTLYITREPEVTCVVVDVSQEDPEVQFNWYVDGVEVHNAKTKPREEQFNSTYRVVSVLTVLHQDWLNGKEYKCKVSNKGLPSSIEKTISKAKGQPREPQVYTLPPSQEEMTKNQVSLTCLVKGFYPSDIAVEWESNGQPENNYKTTPPVLDSDGSFFLYSRLTVDKSRWQEGNVFSCSVMHEALHNHYTQKSLSLSLGK
light: DIQMTQSPSSLSASVGDRVTITCLASEGISSYLAWYQQKPGKAPKLLIYGANSLQTGVPSRFSGSGSATDYTLTISSLQPEDFATYYCQQSYKFPNTFGQGTKVEVKRTVAAPSVFIFPPSDEQLKSGTASVVCLLNNFYPREAKVQWKVDNALQSGNSQESVTEQDSKDSTYSLSSTLTLSKADYEKHKVYACEVTHQGLSSPVTKSFNRGEC
notes: also called hu39D10 with the 4 amino acid substitutions; S228P+YTE variant
As for B3, the EC50 in experiment [1] was found to be 0.81 nM.
